Measured values published in the supplement of paper PMC10567573.

B1: TNNI2 (parent)
chain: DWRKNIEEKSGMEGRKKMFESES
B2: TRIM29 (parent)
chain: RKCPVHGKTMELFCQTDQTCICYL

Variants of: B1
Assay: protein stability index of a GFP-peptide fusion (GPS, HEK-293T) (PSI 1-6); higher = more stable
Details: c terminus: native
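Further: lentivirally expressed fusions sorted by FACS into six bins by GFP to DsRed ratio, PSI derived from sequencing read proportions per bin multiplied by bin number.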

Variant	protein stability index
DWRKNIEEKSGMEGRKKKFESES [M18K]	2.78
DWRKNIEEKSGMEGRKKLFESES [M18L]	1.13
DWRKNIEEKSGMEGRKKNFESES [M18N]	4.47
DWRKNIEEKSGMEGRKKPFESES [M18P]	4.59
DWRKNIEEKSGMEGRKKRFESES [M18R]	4.45
DWRKNIEEKSGMEGRKKSFESES [M18S]	4.36
DWRKNIEEKSGMEGRKKTFESES [M18T]	4.9
DWRKNIEEKSGMEGRKKVFESES [M18V]	2.39
DWRKNIEEKSGMEGRKKWFESES [M18W]	1.66
DWRKNIEEKSGMEGRKKYFESES [M18Y]	1.85
DWRKNIEEKSGMEGRKKMAESES [F19A]	5.06
DWRKNIEEKSGMEGRKKMCESES [F19C]	4.42
DWRKNIEEKSGMEGRKKMDESES [F19D]	5.43
DWRKNIEEKSGMEGRKKMEESES [F19E]	5.03
DWRKNIEEKSGMEGRKKMHESES [F19H]	3.76
DWRKNIEEKSGMEGRKKMIESES [F19I]	4.22
DWRKNIEEKSGMEGRKKMKESES [F19K]	5.64
DWRKNIEEKSGMEGRKKMMESES [F19M]	2.82
DWRKNIEEKSGMEGRKKMNESES [F19N]	5.46
DWRKNIEEKSGMEGRKKMPESES [F19P]	4.51
DWRKNIEEKSGMEGRKKMQESES [F19Q]	4.78
DWRKNIEEKSGMEGRKKMRESES [F19R]	4.97
DWRKNIEEKSGMEGRKKMSESES [F19S]	5.6

Variant	protein stability index
DWRKNIEEKSGMEGRKKMTESES [F19T]	4.8
DWRKNIEEKSGMEGRKKMWESES [F19W]	1.48
DWRKNIEEKSGMEGRKKMYESES [F19Y]	2.22
DWRKNIEEKSGMEGRKKMFASES [E20A]	2.88
DWRKNIEEKSGMEGRKKMFCSES [E20C]	2.67
DWRKNIEEKSGMEGRKKMFDSES [E20D]	3.65
DWRKNIEEKSGMEGRKKMFFSES [E20F]	4.56
DWRKNIEEKSGMEGRKKMFGSES [E20G]	4.73
DWRKNIEEKSGMEGRKKMFHSES [E20H]	4.26
DWRKNIEEKSGMEGRKKMFISES [E20I]	2.89
DWRKNIEEKSGMEGRKKMFKSES [E20K]	2.92
DWRKNIEEKSGMEGRKKMFLSES [E20L]	2.33
DWRKNIEEKSGMEGRKKMFMSES [E20M]	2.75
DWRKNIEEKSGMEGRKKMFPSES [E20P]	5.16
DWRKNIEEKSGMEGRKKMFQSES [E20Q]	3.54
DWRKNIEEKSGMEGRKKMFRSES [E20R]	2.22
DWRKNIEEKSGMEGRKKMFSSES [E20S]	4.04
DWRKNIEEKSGMEGRKKMFTSES [E20T]	2.94
DWRKNIEEKSGMEGRKKMFVSES [E20V]	2.79
DWRKNIEEKSGMEGRKKMFWSES [E20W]	3.71
DWRKNIEEKSGMEGRKKMFYSES [E20Y]	3.81
DWRKNIEEKSGMEGRKKMFEAES [S21A]	1.5
DWRKNIEEKSGMEGRKKMFECES [S21C]	3.19

Variant	protein stability index
DWRKNIEEKSGMEGRKKMFEDES [S21D]	5.47
DWRKNIEEKSGMEGRKKMFEEES [S21E]	5.2
DWRKNIEEKSGMEGRKKMFEFES [S21F]	4.49
DWRKNIEEKSGMEGRKKMFEHES [S21H]	2.9
DWRKNIEEKSGMEGRKKMFEKES [S21K]	3.49
DWRKNIEEKSGMEGRKKMFELES [S21L]	3.92
DWRKNIEEKSGMEGRKKMFEMES [S21M]	3.92
DWRKNIEEKSGMEGRKKMFENES [S21N]	3.39
DWRKNIEEKSGMEGRKKMFEPES [S21P]	1.37
DWRKNIEEKSGMEGRKKMFEQES [S21Q]	4.96
DWRKNIEEKSGMEGRKKMFERES [S21R]	3.41
DWRKNIEEKSGMEGRKKMFETES [S21T]	4.47
DWRKNIEEKSGMEGRKKMFEVES [S21V]	2.39
DWRKNIEEKSGMEGRKKMFEWES [S21W]	3.35
DWRKNIEEKSGMEGRKKMFEYES [S21Y]	4.05
DWRKNIEEKSGMEGRKKMFESCS [E22C]	3.71
DWRKNIEEKSGMEGRKKMFESDS [E22D]	3.81
DWRKNIEEKSGMEGRKKMFESFS [E22F]	4.22
DWRKNIEEKSGMEGRKKMFESGS [E22G]	5.04
DWRKNIEEKSGMEGRKKMFESHS [E22H]	4
DWRKNIEEKSGMEGRKKMFESIS [E22I]	3.3
DWRKNIEEKSGMEGRKKMFESKS [E22K]	4.67
DWRKNIEEKSGMEGRKKMFESLS [E22L]	3.17

Variant	protein stability index
DWRKNIEEKSGMEGRKKMFESMS [E22M]	3.29
DWRKNIEEKSGMEGRKKMFESNS [E22N]	4.44
DWRKNIEEKSGMEGRKKMFESPS [E22P]	2.06
DWRKNIEEKSGMEGRKKMFESQS [E22Q]	4.33
DWRKNIEEKSGMEGRKKMFESRS [E22R]	1.58
DWRKNIEEKSGMEGRKKMFESSS [E22S]	5.13
DWRKNIEEKSGMEGRKKMFESTS [E22T]	5.25
DWRKNIEEKSGMEGRKKMFESVS [E22V]	3.77
DWRKNIEEKSGMEGRKKMFESWS [E22W]	3.86
DWRKNIEEKSGMEGRKKMFESYS [E22Y]	3.84
DWRKNIEEKSGMEGRKKMFESEC [S23C]	1.53
DWRKNIEEKSGMEGRKKMFESEF [S23F]	3.02
DWRKNIEEKSGMEGRKKMFESEG [S23G]	3.42
DWRKNIEEKSGMEGRKKMFESEH [S23H]	2.87
DWRKNIEEKSGMEGRKKMFESEI [S23I]	1.59
DWRKNIEEKSGMEGRKKMFESEK [S23K]	2.63
DWRKNIEEKSGMEGRKKMFESEN [S23N]	4.46
DWRKNIEEKSGMEGRKKMFESEP [S23P]	2.42
DWRKNIEEKSGMEGRKKMFESER [S23R]	2.15
DWRKNIEEKSGMEGRKKMFESET [S23T]	1.42
DWRKNIEEKSGMEGRKKMFESEY [S23Y]	2.59

Variants of: B2
Assay: as above
Details: c terminus: a fixed tail appended

Variant	protein stability index
AKCPVHGKTMELFCQTDQTCICYL [R1A]	2.68
CKCPVHGKTMELFCQTDQTCICYL [R1C]	2.39
DKCPVHGKTMELFCQTDQTCICYL [R1D]	1.67
EKCPVHGKTMELFCQTDQTCICYL [R1E]	1.71
FKCPVHGKTMELFCQTDQTCICYL [R1F]	1.95
GKCPVHGKTMELFCQTDQTCICYL [R1G]	3.33
HKCPVHGKTMELFCQTDQTCICYL [R1H]	3
IKCPVHGKTMELFCQTDQTCICYL [R1I]	1.65
KKCPVHGKTMELFCQTDQTCICYL [R1K]	2.22
LKCPVHGKTMELFCQTDQTCICYL [R1L]	3.04
MKCPVHGKTMELFCQTDQTCICYL [R1M]	1.95
NKCPVHGKTMELFCQTDQTCICYL [R1N]	2.84
PKCPVHGKTMELFCQTDQTCICYL [R1P]	2.66
QKCPVHGKTMELFCQTDQTCICYL [R1Q]	1.91
SKCPVHGKTMELFCQTDQTCICYL [R1S]	2.19
TKCPVHGKTMELFCQTDQTCICYL [R1T]	2.32
VKCPVHGKTMELFCQTDQTCICYL [R1V]	2.98
WKCPVHGKTMELFCQTDQTCICYL [R1W]	2.46
YKCPVHGKTMELFCQTDQTCICYL [R1Y]	2.48
RACPVHGKTMELFCQTDQTCICYL [K2A]	2.54
RCCPVHGKTMELFCQTDQTCICYL [K2C]	1.82
RDCPVHGKTMELFCQTDQTCICYL [K2D]	2.15
RECPVHGKTMELFCQTDQTCICYL [K2E]	1.65
RFCPVHGKTMELFCQTDQTCICYL [K2F]	2.36
RGCPVHGKTMELFCQTDQTCICYL [K2G]	2.57
RHCPVHGKTMELFCQTDQTCICYL [K2H]	2.15

Variant	protein stability index
RICPVHGKTMELFCQTDQTCICYL [K2I]	1.94
RLCPVHGKTMELFCQTDQTCICYL [K2L]	2.36
RMCPVHGKTMELFCQTDQTCICYL [K2M]	2.17
RNCPVHGKTMELFCQTDQTCICYL [K2N]	2.68
RPCPVHGKTMELFCQTDQTCICYL [K2P]	3.02
RQCPVHGKTMELFCQTDQTCICYL [K2Q]	2.12
RRCPVHGKTMELFCQTDQTCICYL [K2R]	1.69
RSCPVHGKTMELFCQTDQTCICYL [K2S]	2.27
RTCPVHGKTMELFCQTDQTCICYL [K2T]	1.7
RVCPVHGKTMELFCQTDQTCICYL [K2V]	2.02
RWCPVHGKTMELFCQTDQTCICYL [K2W]	2.91
RYCPVHGKTMELFCQTDQTCICYL [K2Y]	1.8
RKAPVHGKTMELFCQTDQTCICYL [C3A]	3.58
RKDPVHGKTMELFCQTDQTCICYL [C3D]	2.13
RKEPVHGKTMELFCQTDQTCICYL [C3E]	2.52
RKFPVHGKTMELFCQTDQTCICYL [C3F]	2.35
RKGPVHGKTMELFCQTDQTCICYL [C3G]	2.1
RKHPVHGKTMELFCQTDQTCICYL [C3H]	2.27
RKIPVHGKTMELFCQTDQTCICYL [C3I]	3.19
RKKPVHGKTMELFCQTDQTCICYL [C3K]	1.89
RKLPVHGKTMELFCQTDQTCICYL [C3L]	2.3
RKNPVHGKTMELFCQTDQTCICYL [C3N]	2.92
RKPPVHGKTMELFCQTDQTCICYL [C3P]	1.97
RKQPVHGKTMELFCQTDQTCICYL [C3Q]	2.64
RKRPVHGKTMELFCQTDQTCICYL [C3R]	2.12
RKSPVHGKTMELFCQTDQTCICYL [C3S]	2.54

Variant	protein stability index
RKTPVHGKTMELFCQTDQTCICYL [C3T]	3.1
RKVPVHGKTMELFCQTDQTCICYL [C3V]	1.86
RKWPVHGKTMELFCQTDQTCICYL [C3W]	2.72
RKYPVHGKTMELFCQTDQTCICYL [C3Y]	1.9
RKCAVHGKTMELFCQTDQTCICYL [P4A]	2.54
RKCCVHGKTMELFCQTDQTCICYL [P4C]	4.04
RKCDVHGKTMELFCQTDQTCICYL [P4D]	2.63
RKCEVHGKTMELFCQTDQTCICYL [P4E]	3.3
RKCFVHGKTMELFCQTDQTCICYL [P4F]	3.42
RKCIVHGKTMELFCQTDQTCICYL [P4I]	2.52
RKCKVHGKTMELFCQTDQTCICYL [P4K]	2.58
RKCLVHGKTMELFCQTDQTCICYL [P4L]	3.39
RKCNVHGKTMELFCQTDQTCICYL [P4N]	3.09
RKCQVHGKTMELFCQTDQTCICYL [P4Q]	1.95
RKCRVHGKTMELFCQTDQTCICYL [P4R]	3.52
RKCSVHGKTMELFCQTDQTCICYL [P4S]	2.41
RKCTVHGKTMELFCQTDQTCICYL [P4T]	2.25
RKCVVHGKTMELFCQTDQTCICYL [P4V]	2.21
RKCWVHGKTMELFCQTDQTCICYL [P4W]	2.91
RKCYVHGKTMELFCQTDQTCICYL [P4Y]	2.12
RKCPAHGKTMELFCQTDQTCICYL [V5A]	1.72
RKCPCHGKTMELFCQTDQTCICYL [V5C]	3.08
RKCPDHGKTMELFCQTDQTCICYL [V5D]	3.62
RKCPEHGKTMELFCQTDQTCICYL [V5E]	1.79
RKCPGHGKTMELFCQTDQTCICYL [V5G]	3.21
RKCPHHGKTMELFCQTDQTCICYL [V5H]	3.76

Variant	protein stability index
RKCPIHGKTMELFCQTDQTCICYL [V5I]	2.79
RKCPKHGKTMELFCQTDQTCICYL [V5K]	2.3
RKCPLHGKTMELFCQTDQTCICYL [V5L]	1.92
RKCPMHGKTMELFCQTDQTCICYL [V5M]	2.58
RKCPNHGKTMELFCQTDQTCICYL [V5N]	4.09
RKCPPHGKTMELFCQTDQTCICYL [V5P]	2.87
RKCPQHGKTMELFCQTDQTCICYL [V5Q]	1.59
RKCPRHGKTMELFCQTDQTCICYL [V5R]	2.42
RKCPSHGKTMELFCQTDQTCICYL [V5S]	3.1
RKCPTHGKTMELFCQTDQTCICYL [V5T]	2.46
RKCPWHGKTMELFCQTDQTCICYL [V5W]	2.52
RKCPYHGKTMELFCQTDQTCICYL [V5Y]	2.71
RKCPVAGKTMELFCQTDQTCICYL [H6A]	2.38
RKCPVCGKTMELFCQTDQTCICYL [H6C]	1.62
RKCPVDGKTMELFCQTDQTCICYL [H6D]	3.05
RKCPVFGKTMELFCQTDQTCICYL [H6F]	2.31
RKCPVGGKTMELFCQTDQTCICYL [H6G]	2.4
RKCPVIGKTMELFCQTDQTCICYL [H6I]	2.37
RKCPVKGKTMELFCQTDQTCICYL [H6K]	2.29
RKCPVLGKTMELFCQTDQTCICYL [H6L]	2.85
RKCPVNGKTMELFCQTDQTCICYL [H6N]	3.27
RKCPVPGKTMELFCQTDQTCICYL [H6P]	1.98
RKCPVRGKTMELFCQTDQTCICYL [H6R]	4.01
